Laboratory results published in IntAct's records for PubMed 25819436.

Experiments:
sh3g1_rat Sh3gl1 = sh3g1_rat Sh3gl1 (UniProt O35964)
sh3g2_rat Sh3gl2 = sh3g2_rat Sh3gl2 (UniProt O35179)
grb2_human GRB2 = grb2_human GRB2 (UniProt P62993)
amph_rat Amph = amph_rat Amph (UniProt O08838)

Measured: effect of a mutation on the interaction

Chain of SLIT-ROBO Rho GTPase-activating protein 3 (Homo sapiens), O43295 P1056A;P1059A (O43295 whole entry P1056A/P1059A): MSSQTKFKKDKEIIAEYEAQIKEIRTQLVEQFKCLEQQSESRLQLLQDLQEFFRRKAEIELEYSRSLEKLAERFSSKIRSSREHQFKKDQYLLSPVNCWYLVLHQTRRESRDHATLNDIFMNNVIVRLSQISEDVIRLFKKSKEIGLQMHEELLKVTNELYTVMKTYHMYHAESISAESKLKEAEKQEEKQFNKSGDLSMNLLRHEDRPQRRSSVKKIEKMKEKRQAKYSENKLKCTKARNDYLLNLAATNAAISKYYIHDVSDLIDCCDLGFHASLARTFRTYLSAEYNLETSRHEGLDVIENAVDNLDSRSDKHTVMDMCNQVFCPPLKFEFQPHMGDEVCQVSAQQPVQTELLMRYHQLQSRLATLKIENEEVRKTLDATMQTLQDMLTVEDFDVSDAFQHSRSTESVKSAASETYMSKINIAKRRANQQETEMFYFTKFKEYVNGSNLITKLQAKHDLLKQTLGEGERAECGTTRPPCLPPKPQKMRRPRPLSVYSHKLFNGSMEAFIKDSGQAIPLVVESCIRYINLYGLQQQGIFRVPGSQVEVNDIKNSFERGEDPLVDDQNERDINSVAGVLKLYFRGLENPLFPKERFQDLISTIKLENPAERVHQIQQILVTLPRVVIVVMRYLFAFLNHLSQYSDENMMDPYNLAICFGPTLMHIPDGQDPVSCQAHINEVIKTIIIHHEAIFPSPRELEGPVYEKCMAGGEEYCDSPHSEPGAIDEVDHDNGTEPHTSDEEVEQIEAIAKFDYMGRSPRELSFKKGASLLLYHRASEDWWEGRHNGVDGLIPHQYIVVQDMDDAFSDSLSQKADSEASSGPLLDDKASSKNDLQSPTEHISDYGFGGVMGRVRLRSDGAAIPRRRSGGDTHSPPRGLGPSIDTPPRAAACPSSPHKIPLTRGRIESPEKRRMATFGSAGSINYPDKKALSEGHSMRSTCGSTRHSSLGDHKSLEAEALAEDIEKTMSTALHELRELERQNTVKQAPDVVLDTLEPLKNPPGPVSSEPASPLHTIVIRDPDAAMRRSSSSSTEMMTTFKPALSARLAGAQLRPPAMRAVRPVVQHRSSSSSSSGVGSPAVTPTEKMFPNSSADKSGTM
Chain of grb2_human GRB2 (P62993 whole entry, looked up): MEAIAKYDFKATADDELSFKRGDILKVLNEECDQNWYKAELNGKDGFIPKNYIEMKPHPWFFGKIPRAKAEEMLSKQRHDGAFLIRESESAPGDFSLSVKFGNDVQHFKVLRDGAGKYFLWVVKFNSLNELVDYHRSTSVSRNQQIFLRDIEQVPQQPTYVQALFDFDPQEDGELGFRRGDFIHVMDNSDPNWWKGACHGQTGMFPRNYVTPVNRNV
Chain of sh3g2_rat Sh3gl2 (O35179 whole entry): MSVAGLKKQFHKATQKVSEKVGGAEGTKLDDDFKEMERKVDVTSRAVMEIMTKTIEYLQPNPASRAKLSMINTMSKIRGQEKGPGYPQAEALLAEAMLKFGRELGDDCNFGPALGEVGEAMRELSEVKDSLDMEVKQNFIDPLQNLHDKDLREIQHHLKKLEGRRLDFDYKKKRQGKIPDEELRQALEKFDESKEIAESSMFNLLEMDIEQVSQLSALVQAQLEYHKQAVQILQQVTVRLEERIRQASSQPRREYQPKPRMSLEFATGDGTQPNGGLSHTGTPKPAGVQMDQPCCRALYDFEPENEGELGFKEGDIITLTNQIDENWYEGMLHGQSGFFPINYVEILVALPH
Chain of amph_rat Amph (O08838 whole entry): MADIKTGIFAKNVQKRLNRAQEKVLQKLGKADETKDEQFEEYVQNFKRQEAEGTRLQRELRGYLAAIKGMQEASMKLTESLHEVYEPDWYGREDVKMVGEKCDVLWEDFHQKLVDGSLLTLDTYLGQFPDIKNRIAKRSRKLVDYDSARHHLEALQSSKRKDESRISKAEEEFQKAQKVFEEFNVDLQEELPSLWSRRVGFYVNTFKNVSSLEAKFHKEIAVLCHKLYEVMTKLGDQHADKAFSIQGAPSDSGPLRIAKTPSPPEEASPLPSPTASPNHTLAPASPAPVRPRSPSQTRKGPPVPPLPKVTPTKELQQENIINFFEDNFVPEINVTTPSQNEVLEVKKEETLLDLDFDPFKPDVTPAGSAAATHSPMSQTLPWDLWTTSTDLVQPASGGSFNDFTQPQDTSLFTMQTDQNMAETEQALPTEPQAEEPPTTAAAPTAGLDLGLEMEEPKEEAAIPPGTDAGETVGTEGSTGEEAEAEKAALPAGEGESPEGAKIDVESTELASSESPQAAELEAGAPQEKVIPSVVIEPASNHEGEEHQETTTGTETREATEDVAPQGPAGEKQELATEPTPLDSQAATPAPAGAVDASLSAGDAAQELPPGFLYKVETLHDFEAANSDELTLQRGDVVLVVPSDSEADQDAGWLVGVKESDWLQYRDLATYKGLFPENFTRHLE
Chain of sh3g1_rat Sh3gl1 (O35964 whole entry): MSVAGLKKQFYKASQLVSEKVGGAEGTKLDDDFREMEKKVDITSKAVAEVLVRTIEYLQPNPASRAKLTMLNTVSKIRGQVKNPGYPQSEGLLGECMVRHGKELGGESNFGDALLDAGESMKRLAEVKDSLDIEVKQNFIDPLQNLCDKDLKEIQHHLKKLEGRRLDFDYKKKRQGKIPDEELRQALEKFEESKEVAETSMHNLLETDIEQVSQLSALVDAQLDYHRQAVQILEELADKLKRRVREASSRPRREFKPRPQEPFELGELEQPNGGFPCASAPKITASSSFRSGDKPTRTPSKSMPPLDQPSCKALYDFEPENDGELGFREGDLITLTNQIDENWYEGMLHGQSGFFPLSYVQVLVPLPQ

SLIT-ROBO Rho GTPase-activating protein 3 (Homo sapiens), O43295 P1056A;P1059A
disrupting interaction: all assays above
